T1: IL-36R naturally expressed on OVCAR8 cells and on normal human epidermal keratinocytes (NHK cells) (human, UniProt Q9HB29 20-575)
T1 sequence (looked up): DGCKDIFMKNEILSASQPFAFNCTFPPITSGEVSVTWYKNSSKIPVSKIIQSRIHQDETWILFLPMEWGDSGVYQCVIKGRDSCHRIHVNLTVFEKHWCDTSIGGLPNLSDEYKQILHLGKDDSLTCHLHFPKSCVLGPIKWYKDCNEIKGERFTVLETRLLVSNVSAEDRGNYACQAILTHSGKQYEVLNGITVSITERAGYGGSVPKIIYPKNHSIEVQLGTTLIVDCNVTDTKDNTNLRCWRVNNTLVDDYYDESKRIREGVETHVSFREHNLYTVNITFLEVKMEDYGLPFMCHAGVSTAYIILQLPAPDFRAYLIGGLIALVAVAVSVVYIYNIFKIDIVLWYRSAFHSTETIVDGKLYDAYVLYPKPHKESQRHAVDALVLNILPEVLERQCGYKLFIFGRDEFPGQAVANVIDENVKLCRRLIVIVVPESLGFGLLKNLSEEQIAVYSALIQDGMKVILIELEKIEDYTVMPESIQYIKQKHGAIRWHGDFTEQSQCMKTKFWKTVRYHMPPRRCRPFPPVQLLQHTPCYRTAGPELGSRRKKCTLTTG

T2: human IL-36R overexpressed on 293T-hIL36R-NFκB cells (human, UniProt Q9HB29 20-575)
T2 construct: Entry includes the signal peptide; also called IL1RL2; IL-1Rrp2
T2 sequence: T1 sequence (looked up)

T3: cynomolgus IL-36R overexpressed on 293T-CynoIL36R-NFκB cells (cynomolgus monkey)
T3 construct: Entry includes the signal peptide; also called monkey IL-36R
T3 chain: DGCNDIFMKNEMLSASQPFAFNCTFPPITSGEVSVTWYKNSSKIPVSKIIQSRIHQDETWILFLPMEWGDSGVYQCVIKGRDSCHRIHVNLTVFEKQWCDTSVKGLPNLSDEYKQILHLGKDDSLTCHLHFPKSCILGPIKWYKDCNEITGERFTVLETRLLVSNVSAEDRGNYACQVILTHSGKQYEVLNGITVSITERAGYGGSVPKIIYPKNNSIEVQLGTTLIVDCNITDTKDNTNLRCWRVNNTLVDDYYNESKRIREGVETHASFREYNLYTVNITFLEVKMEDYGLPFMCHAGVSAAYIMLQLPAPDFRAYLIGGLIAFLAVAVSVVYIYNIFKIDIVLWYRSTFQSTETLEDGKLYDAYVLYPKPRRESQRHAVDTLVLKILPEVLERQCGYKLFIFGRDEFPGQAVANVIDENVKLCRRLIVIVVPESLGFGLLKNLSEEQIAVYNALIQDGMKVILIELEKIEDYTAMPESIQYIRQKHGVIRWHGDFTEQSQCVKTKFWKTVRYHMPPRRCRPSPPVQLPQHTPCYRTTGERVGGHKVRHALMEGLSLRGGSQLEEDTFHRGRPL

B1: BI655130 (antibody, human IgG1, kappa, L234A L235A)
heavy: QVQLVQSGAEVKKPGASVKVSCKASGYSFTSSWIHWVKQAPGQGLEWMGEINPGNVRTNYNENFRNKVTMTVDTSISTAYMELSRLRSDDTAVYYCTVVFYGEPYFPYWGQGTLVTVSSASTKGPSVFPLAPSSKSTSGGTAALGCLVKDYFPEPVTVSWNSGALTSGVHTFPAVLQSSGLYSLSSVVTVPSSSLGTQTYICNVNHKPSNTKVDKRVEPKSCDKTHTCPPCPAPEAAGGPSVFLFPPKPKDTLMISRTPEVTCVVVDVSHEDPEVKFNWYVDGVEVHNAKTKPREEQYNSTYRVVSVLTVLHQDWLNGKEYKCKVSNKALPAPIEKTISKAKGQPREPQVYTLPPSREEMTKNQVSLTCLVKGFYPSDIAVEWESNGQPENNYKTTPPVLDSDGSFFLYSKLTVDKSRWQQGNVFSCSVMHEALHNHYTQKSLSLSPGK
light: QIVLTQSPGTLSLSPGERATMTCTASSSVSSSYFHWYQQKPGQAPRLWIYRTSRLASGVPDRFSGSGSGTDFTLTISRLEPEDAATYYCHQFHRSPLTFGAGTKLEIKRTVAAPSVFIFPPSDEQLKSGTASVVCLLNNFYPREAKVQWKVDNALQSGNSQESVTEQDSKDSTYSLSSTLTLSKADYEKHKVYACEVTHQGLSSPVTKSFNRGEC
notes: also called Spesolimab
B2: chimeric 72C1 antibody (antibody, human IgG4 S228P, kappa)
heavy: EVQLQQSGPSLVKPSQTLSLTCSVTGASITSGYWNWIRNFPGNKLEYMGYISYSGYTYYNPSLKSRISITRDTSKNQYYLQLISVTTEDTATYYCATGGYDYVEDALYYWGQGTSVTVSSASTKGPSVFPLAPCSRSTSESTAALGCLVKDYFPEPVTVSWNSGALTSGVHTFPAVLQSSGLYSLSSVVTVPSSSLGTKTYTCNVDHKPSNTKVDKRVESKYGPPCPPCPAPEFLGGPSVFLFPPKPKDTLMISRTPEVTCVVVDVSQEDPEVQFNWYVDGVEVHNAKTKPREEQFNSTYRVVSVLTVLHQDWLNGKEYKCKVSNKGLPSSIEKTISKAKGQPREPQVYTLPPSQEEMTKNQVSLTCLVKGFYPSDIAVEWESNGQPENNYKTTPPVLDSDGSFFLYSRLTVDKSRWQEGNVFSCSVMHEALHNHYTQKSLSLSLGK
light: EILLTQSPAIMSATLGEKVTMSCRASSNVRYMYWYQLKSGASPKLWIYLTSNLASGVPARFSGSGSGTSYSLTISSVEAEDAATYFCQQFTTSPYTFGGGTKLEIKRTVAAPSVFIFPPSDEQLKSGTASVVCLLNNFYPREAKVQWKVDNALQSGNSQESVTEQDSKDSTYSLSSTLTLSKADYEKHKVYACEVTHQGLSSPVTKSFNRGEC
notes: Mouse variable regions on human IgG4 / kappa; also called xi72C1
B3: chimeric 84C4 antibody (antibody, human IgG4 S228P, kappa)
heavy: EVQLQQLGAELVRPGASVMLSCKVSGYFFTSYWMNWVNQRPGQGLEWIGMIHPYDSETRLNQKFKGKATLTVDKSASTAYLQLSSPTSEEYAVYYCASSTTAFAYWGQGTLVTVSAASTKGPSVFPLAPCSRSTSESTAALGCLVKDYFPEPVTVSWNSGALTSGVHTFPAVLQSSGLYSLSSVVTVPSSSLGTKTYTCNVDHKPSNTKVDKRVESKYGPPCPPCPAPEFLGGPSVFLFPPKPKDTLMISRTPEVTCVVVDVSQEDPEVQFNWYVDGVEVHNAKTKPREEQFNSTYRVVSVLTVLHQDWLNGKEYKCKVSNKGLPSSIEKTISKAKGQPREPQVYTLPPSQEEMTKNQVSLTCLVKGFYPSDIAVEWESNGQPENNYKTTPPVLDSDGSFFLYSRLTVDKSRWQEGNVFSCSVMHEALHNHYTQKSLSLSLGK
light: DILMTQSPSSLSASLGERVSLTCRASQDIGNALNWLQQAPDGTIKRLIYATSSLDPGVPKRFSGSRSGSDYSLTISSLASEDFVYYYCLQYASSPYTFGGGTKLEIKRTVAAPSVFIFPPSDEQLKSGTASVVCLLNNFYPREAKVQWKVDNALQSGNSQESVTEQDSKDSTYSLSSTLTLSKADYEKHKVYACEVTHQGLSSPVTKSFNRGEC
notes: Mouse variable regions on human IgG4 / kappa; also called xi84C4
B4: hz72C1-1.1 (antibody, human IgG4 S228P, kappa)
heavy: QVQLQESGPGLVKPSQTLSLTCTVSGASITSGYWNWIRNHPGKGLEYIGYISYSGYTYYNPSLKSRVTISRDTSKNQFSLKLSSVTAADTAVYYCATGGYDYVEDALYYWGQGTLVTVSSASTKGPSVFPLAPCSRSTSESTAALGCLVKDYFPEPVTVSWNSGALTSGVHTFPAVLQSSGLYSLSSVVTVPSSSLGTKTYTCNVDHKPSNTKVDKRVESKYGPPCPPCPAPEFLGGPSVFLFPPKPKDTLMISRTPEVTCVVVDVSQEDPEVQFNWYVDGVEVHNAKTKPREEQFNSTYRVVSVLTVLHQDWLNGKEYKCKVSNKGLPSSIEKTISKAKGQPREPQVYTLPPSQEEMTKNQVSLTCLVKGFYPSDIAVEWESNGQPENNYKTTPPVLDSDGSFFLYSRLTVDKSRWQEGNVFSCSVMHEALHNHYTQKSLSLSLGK
light: DIQMTQSPSSLSASVGDRVTITCRASSNVRYMYWYQQKPGKAPKLWIYLTSNLASGVPSRFSGSGSGTSYTLTISSLQPEDFATYYCQQFTTSPYTFGQGTKLEIKRTVAAPSVFIFPPSDEQLKSGTASVVCLLNNFYPREAKVQWKVDNALQSGNSQESVTEQDSKDSTYSLSSTLTLSKADYEKHKVYACEVTHQGLSSPVTKSFNRGEC
notes: Humanized, human IgG4 / kappa; also called humanized 72C1 antibody 1.1
B5: hz72C1-1.3 (antibody, human IgG4 S228P, kappa)
heavy: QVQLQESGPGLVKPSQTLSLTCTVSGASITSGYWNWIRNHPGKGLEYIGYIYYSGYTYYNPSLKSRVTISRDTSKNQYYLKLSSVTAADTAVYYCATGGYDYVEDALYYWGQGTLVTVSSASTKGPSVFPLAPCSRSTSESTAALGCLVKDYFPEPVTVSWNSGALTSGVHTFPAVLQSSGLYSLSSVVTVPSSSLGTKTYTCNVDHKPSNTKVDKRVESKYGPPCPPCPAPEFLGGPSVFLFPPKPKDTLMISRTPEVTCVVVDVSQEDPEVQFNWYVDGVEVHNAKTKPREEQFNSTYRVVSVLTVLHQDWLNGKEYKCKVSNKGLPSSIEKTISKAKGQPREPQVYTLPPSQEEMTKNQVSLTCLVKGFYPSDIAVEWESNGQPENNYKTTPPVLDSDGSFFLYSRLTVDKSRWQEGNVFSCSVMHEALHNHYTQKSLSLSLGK
light: B4 light
notes: Humanized, human IgG4 / kappa

biological target: T1, IL-36R naturally expressed on OVCAR8 …; assay: cell-based or functional assay

IC50; IL-8 production of NHK cells stimulated with hIL36γ, inhibition rate % [nM] | Binder
0.0387 | B1
0.0486 | B2
0.125 | B3

biological target: T2, human IL-36R overexpressed on …; assay: FACS on 293T-hIL36R-NFκB cells, ratio of MFI to background MFI
Protocol: (§1) After the cells was washed with PBS, the cells were resuspended with 100 μL of PBS and then the fluorescence signal was detected using a flow cytometer (BD, Accuri C6). […] The ratio was the ratio of mean fluorescence intensity (MFI) of the experimental group/the background MFI, and the resulting data were analyzed using GraphPad Prism.

EC50 [nM] | Binder
1.33 | B1
2.52 | B2
0.886 | B3

Biological target: T3, cynomolgus IL-36R overexpressed on …
Assay: FACS on 293T-CynoIL36R-NFκB cells, ratio of MFI to background MFI
Protocol: as §1

EC50 [nM] | Binder
9.64 | B1
8.96 | B2
36.6 | B3

Biological target: T3, cynomolgus IL-36R overexpressed on …
Assay: cell-based or functional assay

IC50 (M); hIL36α; NFκB-luciferase [M] | IC50 (M); hIL36β; NFκB-luciferase [M] | IC50 (M); hIL36γ; NFκB-luciferase [M] | Maximum inhibition rate %; hIL36α; NFκB-luciferase [%] | Maximum inhibition rate %; hIL36β; NFκB-luciferase [%] | Maximum inhibition rate %; hIL36γ; NFκB-luciferase [%] | Binder
3.15e-09 | 3.09e-09 | 1.66e-09 | 101 | 100 | 104 | B4
3.13e-09 | 2.7e-09 | 1.65e-09 | 101 | 101 | 103 | B5
2.77e-08 | 5.63e-08 | 1.19e-08 | 49.1 | 60.8 | 83.1 | B1

From patent US20240270857A1 (CHIA TAI TIANQING PHARMACEUTICAL GROUP, published 2024)
